Measurements as given in patent US20220409696A1, “Heparin-Associated Polypeptides and Uses Thereof” (Juvena Therapeutics, Inc., priority 2021, published 2022).

Test system: DM1 human myoblast
Assay: Gene expression fold change in DM1 human myoblast
Type: cell-based
Conditions: 48 h; BMP7 50 ng/mL, Butyrate 100 nM, IGF2 200 ng/mL
Protocol: Myoblasts were cultured 48 h in the presence of factors (BMP7 50 ng/mL, Butyrate 100 nM, IGF2 200 ng/mL).
Myoblasts were cultured 96 h in the presence of factors (IGF2 200 ng/mL). […] Myoblasts were cultured 48 h in the presence of factors (IGF2 200 ng/mL).
RNA was isolated from each well (RNeasy Mini Kit, Qiagen) and cDNA was obtained by reverse-transcription (High Capacity Reverse Transcription Kit, Thermo Fisher Scientific). Real-time quantitative PCR was performed using QuantStudio3 (Thermo Fisher).
IGF2 was tested individually for its ability to promote proliferation and/or fusion of human muscle progenitor cells from an individual with myotonic dystrophy type 1 (hMD)—a muscular dystrophy caused by mutations in the DMPK1 gene. The effect of IGF2 on myogenic activity was assayed in biological triplicate across a range of concentrations centered around expected physiological levels by adding each factor to hMD myoblasts for 72 hours with daily media changes (DMEM+2% horse serum) and a second pulse of factors at the first media change. After 72 or 96 hours, cells were pulsed for 2-5 hours with EdU (30 uM), ethanol fixed, stained with Hoescht 3342, immunostained for proliferation—as measured by the percent of cells staining positive for EdU (% EdU)-, and immunostained for differentiation—as measured by the increase in cellular area staining positive for embryonic myosin heavy chain (% eMyHC) relative to the negative controls, which received media and vehicle only. Wells were imaged on a Keyence BZ-100 at 4×, the images quantified in Cell Profiler, and the statistics were computed in R. Additionally, RNA was extracted from myoblast and select transcript abundances quantified by qPCR.

B1: BMP7: factor BMP7 added at 50 ng/mL to DM1 human myoblasts (protein, UniProt P18075 293-431, looked up)
Bone morphogenetic protein 7: STGSKQRSQNRSKTPKNQEALRMANVAENSSSDQRQACKKHELYVSFRDLGWQDWIIAPEGYAAYYCEGECAFPLNSYMNATNHAIVQTLVHFINPETVPKPCCAPTQLNAISVLYFDDSSNVILKKYRNMVVRACGCH
MYF5 myogenic gene expression fold change compared to FM (vehicle): 0.709
MYODI myogenic gene expression fold change compared to FM (vehicle): 0.709
MYOG myogenic gene expression fold change compared to FM (vehicle): 0.361
